In paper PMC6811539, “Minute-scale persistence of a GPCR conformation state triggered by non-cognate G protein interactions primes signaling” (Nature Communications, 2019) one finds critical concentration (CC) of unlabeled peptide for enhanced isoproterenol-stimulated ΔFRET of the β2-AR-Sp sensor in native membranes (peptide 100 nM to 100 μM) data, which are given here for one substance.

For this experiment, the target named is β2-AR of the β2-AR-Sp SPASM sensor (human) (UniProt P07550).

Consider Sp (Gαs C terminus peptide), for which the critical concentration (CC) of unlabeled peptide for enhanced isoproterenol-stimulated ΔFRET of the β2-AR-Sp sensor in native membranes (peptide 100 nM to 100 μM) was determined as 1.5 µM.
